Experimental data published in patent US20160264650A1 (Regeneron, published 2016).
Read-outs that look alike come from different tables or passages of the source.

Tests used:
[1] = molecular target: T1, Clostridium difficile toxin B, soluble full-length (TechLab) (Clostridium difficile, UniProt P18177 2-2366); test: SPR Biacore T200, 37C, mAb capture
T1 construct: also called tcdB

[2] = molecular target: T2, Clostridium difficile toxin A, soluble full-length (TechLab) (Clostridium difficile, UniProt P16154 1-2710); test: SPR Biacore T200, 37C, mAb capture
T2 construct: also called tcdA

[3] = molecular target: T3, CBD-toxin B-Fc (Clostridium difficile, UniProt P18177 1851-2366); test: SPR Biacore, mAb capture and CBD-Fc capture formats
T3 construct: also called CBD-B; C-term Toxin B

[4] = molecular target: T4, CBD-toxin A-Fc (Clostridium difficile, UniProt P16154 1848-2710); test: as above
T4 construct: also called CBD-A; C-term Toxin A

[5] = molecular target: T5, C-term receptor Binding Domain (CBD) of toxin A (Clostridium difficile, UniProt P16154 1848-2710); test: SEC (Superose 6) of CBD and mAb mixture
T5 construct: also called CBD-A; recombinant CBD of toxin A

[6] = molecular target: T4, CBD-toxin A-Fc; test: SPR Biacore, mAb captured, 100 nM CBD-A-Fc flowed
[7] = molecular target: T2, Clostridium difficile toxin A, soluble …; test: cell-based or functional assay
[8] = molecular target: T4, CBD-toxin A-Fc; test: SPR Biacore, CBD-A-Fc captured, 500 nM mAb flowed
[9] = molecular target: T3, CBD-toxin B-Fc; test: SPR Biacore, CBD-B-Fc captured, 500 nM mAb flowed
[10] = molecular target: T2, Clostridium difficile toxin A, soluble …; test: SPR Biacore T200, 37C, mAb capture; remark: listed apart in the source
[11] = molecular target: T2, Clostridium difficile toxin A, soluble …; test: cell-based or functional assay; remark: listed apart in the source

B1: H2M3121N (antibody, V domains shown)
VH: EVQLVESGGDLVQPGGSLRLSCAASGVTFRTYEMNWVRQAPGKGLEWISHISSSGDIIYYTKSVKGRFTISRDNAKNSLFLQMTSLRAEDTAVYYCARERYSQYGYYYFGMDVWGQGTTVTVSS
VL: DIQMTQSPSTLSASIGDRVTITCRASQNTDKWMAWYQQKAGKAPKLLIYKASILESGVPSRFSGSGSGTEFTLTISSLQPDDFATYYCQEYNTYFRAFGQGTKVETR
notes: also called H2aM3121N; H1M3121N
Q: B1 was tested. Which Kd [1] did it give?
A: 1.24 nM

Q: What about the “T½” value [1] of the same binder?
A: 152 min

Q: And the koff [1]?
A: 7.58e-05 s⁻¹

Q: And the kon [1]?
A: 61100 M⁻¹ s⁻¹

Q: What about the Kd [2] of the same binder?
A: 0.172 nM

Q: And the “T½” value [2]?
A: 69 min

Q: And the koff [2]?
A: 0.000166 s⁻¹

Q: What about the kon [2] of the same binder?
A: 969000 M⁻¹ s⁻¹

Q: Does B1 bind [3]?
A: no binding

Q: Does B1 bind [4]?
A: no binding

Q: Does B1 bind [5]?
A: no binding (tested: CBD at ~500 nM, CBD:Mab 1:5 and 1:20)

Q: What about the “binding (RU)” value [6] of the same binder?
A: 0 RU

Q: And the “IC50, Vero cell viability (neutralization), Trial 1, 32 pM Toxin A” value (“IC50 … Trial 1, 32 pM Toxin A” for short) [7]?
A: 65 pM

Q: And the “IC50, Vero cell viability (neutralization), Trial 2, 32 pM Toxin A” value (“IC50 … Trial 2, 32 pM Toxin A” below) [7]?
A: 35 pM

Q: And the “binding (RU)” value [8]?
A: 23 RU

B2: H2M3123N (antibody, V domains shown)
VH: DVQLVESGGDFVQPGGSLRLSCAASGVAFNDYEMNWIRQAPGKRLEWISHIDSSGTIIYYADSVKGRFTISRDSAKNSLFLQMDSLRAEDTAVYYCARERYSHYGYYYFGMDVWGQGTTVTVSS
VL: DIQMTQSPSTLSASVGDRVTITCRASQNIDNWLAWYQQKTGKAPNLLIYKASTLESGVPSRFSGSGSGTEFTLTIISLQPDDFATYYCQEYNTYSRTFGQGTKVEIK
notes: also called H2aM3123N; H1M3123N
Q: With B2 as the binder, how does the Kd [1] read?
A: 1.65 nM

Q: And the “T½” value [1]?
A: 176 min

Q: What about the koff [1] of the same binder?
A: 6.54e-05 s⁻¹

Q: And the kon [1]?
A: 39700 M⁻¹ s⁻¹

Q: And the Kd [2]?
A: 0.481 nM

Q: And the “T½” value [2]?
A: 19 min

Q: And the koff [2]?
A: 0.000593 s⁻¹

Q: What about the kon [2] of the same binder?
A: 1.23e+06 M⁻¹ s⁻¹

Q: Does B2 bind [3]?
A: no binding

Q: Does B2 bind [4]?
A: no binding

Q: Does B2 bind [5]?
A: no binding (tested: CBD at ~500 nM, CBD:Mab 1:5 and 1:20)

Q: And the “binding (RU)” value [6]?
A: 1 RU

Q: What about the “IC50 … Trial 1, 32 pM Toxin A” value [7] of the same binder?
A: 65 pM

Q: And the “IC50 … Trial 2, 32 pM Toxin A” value [7]?
A: 24 pM

Q: And the “binding (RU)” value [8]?
A: 23 RU

B3: H1H3330P (antibody, V domains shown)
VH: QVQLVESGGGVVQPGGSLRLSCAASGFTFSSYAMHWVRQAPGKGLEWVAIIWFDGSNEDYADSVKGRFTISRDNSKNMVYLQINSLRAEDTAVYYCARSANWNYEGGPLFDYWGQGTLVTVSS
VL: DIQMTQSPSSLSASVGDRVTITCRASQTISTFLNWYQQKPGKGPELLIYTASSLQSGVPSRFSGSGSGTDFALTISSLQPEDFATYYCQQNYNDPPTFGQGTRLEIKR
Q: B3 was tested. Which “binding (RU)” value [9] did it give?
A: -4 RU

Q: What about the Kd [10] of the same binder?
A: 0.547 nM

Q: What about the “T½” value [10] of the same binder?
A: 85 min

Q: What about the koff [10] of the same binder?
A: 0.000137 s⁻¹

Q: What about the kon [10] of the same binder?
A: 250000 M⁻¹ s⁻¹

Q: What about the “binding (RU)” value [6] of the same binder?
A: 441 RU

Q: And the “IC50, Vero cell viability (neutralization), Trial 3, 32 pM Toxin A” value [7]?
A: 7 pM

Q: And the “IC50, Vero cell viability (neutralization), Trial 5, 25 pM Toxin A” value [7]?
A: 7 pM

Q: And the “binding (RU)” value [8]?
A: 515 RU

Q: What about the “neutralization potency relative to control I” value [11] of the same binder?
A: ~20 fold

B4: H2M3124N (antibody, V domains shown)
VH: EIQLIESGGDMVQPGGSLRLSCAASGISLNSYEMNWVRQTPGMGLEWISHISSSGTSIYYANSVKGRFTIFRDSAKNSLLLQMNSLRAEDTAIYYCARERYDHSGYYYLGMDVWGLGTTVTVSS
VL: DIQMTQSPSTLSASLGDRVTITCRASQNIDNWMAWYQQKVGKAPKLLIYRASTLETGVPSRFGGSGFGTEFTLTISSLQPGDFATYYCQEYNSYFRTFGQGTKVEIK
notes: also called H2aM3124N; H1M3124N
Q: With B4 as the binder, how does the Kd [1] read?
A: ≤ 0.00302 nM

Q: What about the “T½” value [1] of the same binder?
A: 11600 min

Q: What about the koff [1] of the same binder?
A: ≤ 1e-06 s⁻¹

Q: What about the kon [1] of the same binder?
A: 331000 M⁻¹ s⁻¹

Q: What about the Kd [2] of the same binder?
A: 0.174 nM

Q: What about the “T½” value [2] of the same binder?
A: 58 min

Q: What about the koff [2] of the same binder?
A: 0.000198 s⁻¹

Q: What about the kon [2] of the same binder?
A: 1.14e+06 M⁻¹ s⁻¹

Q: Does B4 bind [3]?
A: no binding

Q: Does B4 bind [4]?
A: no binding

Q: Does B4 bind [5]?
A: no binding (tested: CBD at ~500 nM, CBD:Mab 1:5 and 1:20)

Q: What about the “binding (RU)” value [6] of the same binder?
A: 0 RU

Q: And the “IC50 … Trial 1, 32 pM Toxin A” value [7]?
A: 41 pM

Q: What about the “IC50 … Trial 2, 32 pM Toxin A” value [7] of the same binder?
A: 21 pM

Q: And the “binding (RU)” value [8]?
A: 29 RU
